Assay results published in the Human Domainome abundance scans (Beltran et al. 2025).
± gives the uncertainty stated by the source.

B1: Formin-binding protein 4, residues 200 to 261; numbered along this chain, Q8N3X1 (parent)
chain: SGWQYDTQCSLAGVGIEMGDWQEVWDENTGCYYYWNTQTNEVTWELPQYLATQVQGLQHYQP

Variants of: B1
Assay: abundance fitness (aPCA) (normalised: wild type 0, dead -1); higher = more abundant; growth selection in yeast, the domain comes from the species named
Settings: Homo sapiens

Variant | abundance fitness
SGWQYDTQCYLAGVGIEMGDWQEVWDENTGCYYYWNTQTNEVTWELPQYLATQVQGLQHYQP [S10Y] | -0.623 ± 0.17
SGWQYDTQCMLAGVGIEMGDWQEVWDENTGCYYYWNTQTNEVTWELPQYLATQVQGLQHYQP [S10M] | -0.521 ± 0.12
SGWQYDTQCWLAGVGIEMGDWQEVWDENTGCYYYWNTQTNEVTWELPQYLATQVQGLQHYQP [S10W] | -1.03 ± 0.17
SGWQYDTQCNLAGVGIEMGDWQEVWDENTGCYYYWNTQTNEVTWELPQYLATQVQGLQHYQP [S10N] | -0.533 ± 0.13
SGWQYDTQCQLAGVGIEMGDWQEVWDENTGCYYYWNTQTNEVTWELPQYLATQVQGLQHYQP [S10Q] | -0.498 ± 0.11
SGWQYDTQCTLAGVGIEMGDWQEVWDENTGCYYYWNTQTNEVTWELPQYLATQVQGLQHYQP [S10T] | -0.112 ± 0.078
SGWQYDTQCPLAGVGIEMGDWQEVWDENTGCYYYWNTQTNEVTWELPQYLATQVQGLQHYQP [S10P] | -0.216 ± 0.081
SGWQYDTQCVLAGVGIEMGDWQEVWDENTGCYYYWNTQTNEVTWELPQYLATQVQGLQHYQP [S10V] | -0.701 ± 0.071
SGWQYDTQCRLAGVGIEMGDWQEVWDENTGCYYYWNTQTNEVTWELPQYLATQVQGLQHYQP [S10R] | -0.328 ± 0.062
SGWQYDTQCSWAGVGIEMGDWQEVWDENTGCYYYWNTQTNEVTWELPQYLATQVQGLQHYQP [L11W] | -0.381 ± 0.11
SGWQYDTQCSAAGVGIEMGDWQEVWDENTGCYYYWNTQTNEVTWELPQYLATQVQGLQHYQP [L11A] | -0.731 ± 0.088
SGWQYDTQCSEAGVGIEMGDWQEVWDENTGCYYYWNTQTNEVTWELPQYLATQVQGLQHYQP [L11E] | -0.483 ± 0.097
SGWQYDTQCSVAGVGIEMGDWQEVWDENTGCYYYWNTQTNEVTWELPQYLATQVQGLQHYQP [L11V] | -0.192 ± 0.059
SGWQYDTQCSPAGVGIEMGDWQEVWDENTGCYYYWNTQTNEVTWELPQYLATQVQGLQHYQP [L11P] | -0.636 ± 0.12
SGWQYDTQCSMAGVGIEMGDWQEVWDENTGCYYYWNTQTNEVTWELPQYLATQVQGLQHYQP [L11M] | -0.625 ± 0.12
SGWQYDTQCSFAGVGIEMGDWQEVWDENTGCYYYWNTQTNEVTWELPQYLATQVQGLQHYQP [L11F] | -0.714 ± 0.14
SGWQYDTQCSHAGVGIEMGDWQEVWDENTGCYYYWNTQTNEVTWELPQYLATQVQGLQHYQP [L11H] | -0.559 ± 0.12
SGWQYDTQCSIAGVGIEMGDWQEVWDENTGCYYYWNTQTNEVTWELPQYLATQVQGLQHYQP [L11I] | -0.061 ± 0.093
SGWQYDTQCSDAGVGIEMGDWQEVWDENTGCYYYWNTQTNEVTWELPQYLATQVQGLQHYQP [L11D] | -0.429 ± 0.12
SGWQYDTQCSNAGVGIEMGDWQEVWDENTGCYYYWNTQTNEVTWELPQYLATQVQGLQHYQP [L11N] | -0.79 ± 0.17
SGWQYDTQCSCAGVGIEMGDWQEVWDENTGCYYYWNTQTNEVTWELPQYLATQVQGLQHYQP [L11C] | -0.429 ± 0.1
SGWQYDTQCSGAGVGIEMGDWQEVWDENTGCYYYWNTQTNEVTWELPQYLATQVQGLQHYQP [L11G] | -0.678 ± 0.084

Variant | abundance fitness
SGWQYDTQCSYAGVGIEMGDWQEVWDENTGCYYYWNTQTNEVTWELPQYLATQVQGLQHYQP [L11Y] | -0.57 ± 0.12
SGWQYDTQCSKAGVGIEMGDWQEVWDENTGCYYYWNTQTNEVTWELPQYLATQVQGLQHYQP [L11K] | -0.469 ± 0.14
SGWQYDTQCSLACVGIEMGDWQEVWDENTGCYYYWNTQTNEVTWELPQYLATQVQGLQHYQP [G13C] | -0.103 ± 0.098
SGWQYDTQCSLAAVGIEMGDWQEVWDENTGCYYYWNTQTNEVTWELPQYLATQVQGLQHYQP [G13A] | -0.237 ± 0.09
SGWQYDTQCSLKGVGIEMGDWQEVWDENTGCYYYWNTQTNEVTWELPQYLATQVQGLQHYQP [A12K] | -0.146 ± 0.11
SGWQYDTQCSLFGVGIEMGDWQEVWDENTGCYYYWNTQTNEVTWELPQYLATQVQGLQHYQP [A12F] | -0.465 ± 0.13
SGWQYDTQCSLEGVGIEMGDWQEVWDENTGCYYYWNTQTNEVTWELPQYLATQVQGLQHYQP [A12E] | -0.267 ± 0.12
SGWQYDTQCSLYGVGIEMGDWQEVWDENTGCYYYWNTQTNEVTWELPQYLATQVQGLQHYQP [A12Y] | -0.025 ± 0.11
SGWQYDTQCSLVGVGIEMGDWQEVWDENTGCYYYWNTQTNEVTWELPQYLATQVQGLQHYQP [A12V] | -0.041 ± 0.06
SGWQYDTQCSLNGVGIEMGDWQEVWDENTGCYYYWNTQTNEVTWELPQYLATQVQGLQHYQP [A12N] | -0.331 ± 0.13
SGWQYDTQCSLGGVGIEMGDWQEVWDENTGCYYYWNTQTNEVTWELPQYLATQVQGLQHYQP [A12G] | 0.089 ± 0.077
SGWQYDTQCSLQGVGIEMGDWQEVWDENTGCYYYWNTQTNEVTWELPQYLATQVQGLQHYQP [A12Q] | -0.131 ± 0.094
SGWQYDTQCSLTGVGIEMGDWQEVWDENTGCYYYWNTQTNEVTWELPQYLATQVQGLQHYQP [A12T] | -0.389 ± 0.084
SGWQYDTQCSLHGVGIEMGDWQEVWDENTGCYYYWNTQTNEVTWELPQYLATQVQGLQHYQP [A12H] | -0.217 ± 0.12
SGWQYDTQCSLPGVGIEMGDWQEVWDENTGCYYYWNTQTNEVTWELPQYLATQVQGLQHYQP [A12P] | -0.448 ± 0.11
SGWQYDTQCSLCGVGIEMGDWQEVWDENTGCYYYWNTQTNEVTWELPQYLATQVQGLQHYQP [A12C] | -0.185 ± 0.1
SGWQYDTQCSLDGVGIEMGDWQEVWDENTGCYYYWNTQTNEVTWELPQYLATQVQGLQHYQP [A12D] | -0.226 ± 0.14
SGWQYDTQCSLIGVGIEMGDWQEVWDENTGCYYYWNTQTNEVTWELPQYLATQVQGLQHYQP [A12I] | -0.363 ± 0.12
SGWQYDTQCSLLGVGIEMGDWQEVWDENTGCYYYWNTQTNEVTWELPQYLATQVQGLQHYQP [A12L] | -0.272 ± 0.057
SGWQYDTQCSLMGVGIEMGDWQEVWDENTGCYYYWNTQTNEVTWELPQYLATQVQGLQHYQP [A12M] | -0.587 ± 0.11
SGWQYDTQCSLSGVGIEMGDWQEVWDENTGCYYYWNTQTNEVTWELPQYLATQVQGLQHYQP [A12S] | -0.068 ± 0.06
